Biological target: T1, CTCF recombinant full-length (OriGene) (UniProt P49711)
T1 sequence: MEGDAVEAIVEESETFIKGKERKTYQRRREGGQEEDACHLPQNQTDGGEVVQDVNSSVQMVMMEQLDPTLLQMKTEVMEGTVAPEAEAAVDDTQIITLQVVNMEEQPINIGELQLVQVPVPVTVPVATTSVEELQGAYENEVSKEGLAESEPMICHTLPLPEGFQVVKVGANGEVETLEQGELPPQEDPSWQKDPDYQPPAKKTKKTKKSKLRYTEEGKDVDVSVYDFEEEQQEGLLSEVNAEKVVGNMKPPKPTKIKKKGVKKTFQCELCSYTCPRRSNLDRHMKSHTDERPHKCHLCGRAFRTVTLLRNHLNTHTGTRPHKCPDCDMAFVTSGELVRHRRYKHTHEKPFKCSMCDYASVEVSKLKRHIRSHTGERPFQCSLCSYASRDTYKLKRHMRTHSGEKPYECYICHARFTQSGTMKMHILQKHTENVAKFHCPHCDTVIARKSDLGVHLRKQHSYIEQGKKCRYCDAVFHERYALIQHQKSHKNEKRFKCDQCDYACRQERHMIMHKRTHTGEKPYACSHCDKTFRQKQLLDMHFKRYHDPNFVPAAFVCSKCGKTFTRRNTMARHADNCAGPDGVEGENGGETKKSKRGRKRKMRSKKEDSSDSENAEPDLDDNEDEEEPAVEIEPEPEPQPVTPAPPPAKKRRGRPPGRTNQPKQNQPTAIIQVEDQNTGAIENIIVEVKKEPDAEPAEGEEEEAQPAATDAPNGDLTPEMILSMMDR
Assay: EMSA, competition
Settings: LightShift Chemiluminescent RNA EMSA Kit (20158) and Pierce Magnetic RNA-Protein Pull-down Kit (20164) protocols; buffer, salt, pH and temperature not stated

In the case of “TTTACAGCGGTGAGGACCACCAAGGGGAGCTAAAATTCGAATGTAGGGAACAGACGATTAACAAGTTAGTTTCAGAATGAAAGACTCGAGTGTAAGAATTCAATGGGATAATTCCTGTAAAGCGTTTAGTACAGTAAAGAGCGAAGGGAAATTCTGAATAAAAGGCAGACACTATTTTAGGATTTGGCCTTCCCCG (double strand) [RAB5A-set3 promoter DNA probe (196 bp)]”, the binding was “binds”.
